Here are results for 94 variants from the supplement of paper PMC10567573.

To fix the notation:
B1: ZNF449 (parent)
chain: FQEYDTDCEVFRQRFRQFQYREAA
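Note: lentivirally expressed fusions sorted by FACS into six bins by GFP to DsRed ratio, PSI derived from sequencing read proportions per bin multiplied by bin number.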

In the data set the parent is B1. Kind of data set: protein stability index of a GFP-peptide fusion (GPS, HEK-293T) (PSI 1-6); higher = more stable. The settings on record: c terminus: a fixed tail appended.
As to FQEYDTDCEVFRQRFRQFQYPEAA, the protein stability index amounted to 2.44.

Regarding FQEYDTDCEVFRQRFRQFQYDEAA, the protein stability index turned out to be 3.13.

For the variant FQEYDTDCEVFRQRFRQFQYAEAA, the protein stability index was determined as 2.44.

Take FQEYDTDCEVFRQRFRQFQYNEAA: the protein stability index came out at 2.62.

FQEYDTDCEVFRQWFRQFQYREAA: the protein stability index was determined as 2.36.

Regarding FQEYDTDCEVFRQFFRQFQYREAA, the protein stability index stood at 2.01.

As to FQEYDTDCEVFRQNFRQFQYREAA, the protein stability index is 2.62.

With FQEYDTDCEVFRQEFRQFQYREAA, the protein stability index stood at 2.69.

Turning to FQEYDTDCEVFRQTFRQFQYREAA, the protein stability index worked out at 2.75.

Turning to FQEYDTDCEVFRQMFRQFQYREAA, the protein stability index was determined as 3.51.

As to FQEYDTDCEVFRQKFRQFQYREAA, the protein stability index was 3.16.

With FQEYDTDCEVFRQPFRQFQYREAA, the protein stability index is 1.8.

As for FQEYDTDCEVFRQGFRQFQYREAA, the protein stability index stood at 2.67.

Regarding FQEYDTDCEVFRQIFRQFQYREAA, the protein stability index came to 1.9.

In the case of FQEYDTDCEVFRQYFRQFQYREAA, the protein stability index is 2.35.

As for FQEYDTDCEVFRQQFRQFQYREAA, the protein stability index amounted to 2.32.

Take FQEYDTDCEVFRQLFRQFQYREAA: the protein stability index worked out at 2.37.

Take FQEYDTDCEVFRQSFRQFQYREAA: the protein stability index is 2.29.

In the case of FQEYDTDCEVFRQHFRQFQYREAA, the protein stability index was 2.76.

Turning to FQEYDTDCEVFRQVFRQFQYREAA, the protein stability index is 1.65.

In the case of FQEYDTDCEVFRQRFRQFQYRLAA, the protein stability index was determined as 2.22.

In the case of FQEYDTDCEVFRQRFRQFQYRVAA, the protein stability index was determined as 2.12.

FQEYDTDCEVFRQRFRQFQYRRAA: the protein stability index was 1.65.

With FQEYDTDCEVFRQRFRQFQYRTAA, the protein stability index was 2.62.

In the case of FQEYDTDCEVFRQRFRQFQYRYAA, the protein stability index is 1.95.

FQEYDTDCEVFRQRFRQFQYRIAA: the protein stability index stood at 1.99.

As for FQEYDTDCEVFRQRFRQFQYRPAA, the protein stability index was determined as 1.72.

With FQEYDTDCEVFRQRFRQFQYRDAA, the protein stability index amounted to 2.91.

For FQEYDTDCEVFRQRFRQFQYRQAA, the protein stability index was found to be 2.17.

FQEYDTDCEVFRQRFRQFQYRNAA: the protein stability index is 2.39.

Take FQEYDTDCEVFRQRFRQFQYRMAA: the protein stability index stood at 1.83.

As for FQEYDTDCEVFRQRFRQFQYRFAA, the protein stability index is 2.69.

In the case of FQEYDTDCEVFRQRFRQFQYRAAA, the protein stability index was 2.43.

For FQEYDTDCEVFRQRFRQFQYRCAA, the protein stability index is 2.39.

For FQEYDTDCEVFRQRFRQFQYRHAA, the protein stability index was determined as 2.36.

FQEYDTDCEVFRQRFRQFQYRKAA: the protein stability index was found to be 2.75.

For the variant FQEYDTDCEVFRQRFRQFQYRSAA, the protein stability index was 2.07.

FQEYDTDCEVFRQRFRQFQYRGAA: the protein stability index turned out to be 2.35.

As for FQEYDTDCEVFRQRFRYFQYREAA, the protein stability index is 2.86.

With FQEYDTDCEVFRQRFRMFQYREAA, the protein stability index came to 2.7.

Consider FQEYDTDCEVFRQRFRIFQYREAA, for which the protein stability index was 2.6.

As for FQEYDTDCEVFRQRFRAFQYREAA, the protein stability index was found to be 2.67.

Turning to FQEYDTDCEVFRQRFRHFQYREAA, the protein stability index was found to be 2.44.

On to FQEYDTDCEVFRQRFRSFQYREAA, for which the protein stability index was 2.39.

FQEYDTDCEVFRQRFRTFQYREAA: the protein stability index came to 2.51.

For FQEYDTDCEVFRQRFRGFQYREAA, the protein stability index came out at 2.22.

Consider FQEYDTDCEVFRQRFRWFQYREAA, for which the protein stability index was 2.17.

On to FQEYDTDCEVFRQRFRNFQYREAA, for which the protein stability index was determined as 2.44.

In the case of FQEYDTDCEVFRQRFRPFQYREAA, the protein stability index was found to be 1.97.

On to FQEYDTDCEVFRQRFRRFQYREAA, for which the protein stability index worked out at 2.31.

As to FQEYDTDCEVFRQRFRDFQYREAA, the protein stability index turned out to be 3.13.

For FQEYDTDCEVFRQRFRFFQYREAA, the protein stability index was 1.71.

Turning to FQEYDTDCEVFRQRFREFQYREAA, the protein stability index came to 2.85.

For the variant FQEYDTDCEVFRQRFRVFQYREAA, the protein stability index came out at 2.3.

In the case of FQEYDTDCEVFRQRFRKFQYREAA, the protein stability index is 2.42.

Consider FQEYDTDCEVFRQRFRLFQYREAA, for which the protein stability index stood at 2.75.

Consider FQEYDTDCEVFRQRFRCFQYREAA, for which the protein stability index came to 2.

On to FQEYDTDCEVFRQRFRQFQPREAA, for which the protein stability index was found to be 2.81.

As for FQEYDTDCEVFRQRFRQFQRREAA, the protein stability index came to 2.88.

As for FQEYDTDCEVFRQRFRQFQVREAA, the protein stability index was 3.27.

FQEYDTDCEVFRQRFRQFQSREAA: the protein stability index is 3.15.

FQEYDTDCEVFRQRFRQFQEREAA: the protein stability index stood at 3.52.

As to FQEYDTDCEVFRQRFRQFQLREAA, the protein stability index was determined as 2.83.

Consider FQEYDTDCEVFRQRFRQFQQREAA, for which the protein stability index came to 3.73.

For FQEYDTDCEVFRQRFRQFQNREAA, the protein stability index is 3.48.

Regarding FQEYDTDCEVFRQRFRQFQAREAA, the protein stability index is 3.12.

For the variant FQEYDTDCEVFRQRFRQFQGREAA, the protein stability index was 3.31.

As to FQEYDTDCEVFRQRFRQFQHREAA, the protein stability index is 3.27.

With FQEYDTDCEVFRQRFRQFQCREAA, the protein stability index was 2.2.

Consider FQEYDTDCEVFRQRFRQFQIREAA, for which the protein stability index was 3.37.

For the variant FQEYDTDCEVFRQRFRQFQKREAA, the protein stability index is 3.21.

Consider FQEYDTDCEVFRQRFRQFQWREAA, for which the protein stability index was found to be 1.47.

Take FQEYDTDCEVFRQRFRQFQMREAA: the protein stability index is 3.03.

For FQEYDTDCEVFRQRFRQFQTREAA, the protein stability index turned out to be 3.46.

Turning to FQEYDTDCEVFRQRFRQFQDREAA, the protein stability index was determined as 3.49.

As for FQEYDTDCEVFRQRFRQFQFREAA, the protein stability index turned out to be 2.57.

FQEYDTDCEVFRQRFRQPQYREAA: the protein stability index is 2.43.

Take FQEYDTDCEVFRQRFRQTQYREAA: the protein stability index was found to be 3.11.

In the case of FQEYDTDCEVFRQRFRQQQYREAA, the protein stability index is 3.56.

For the variant FQEYDTDCEVFRQRFRQSQYREAA, the protein stability index stood at 2.1.

As to FQEYDTDCEVFRQRFRQNQYREAA, the protein stability index was determined as 2.38.

On to FQEYDTDCEVFRQRFRQWQYREAA, for which the protein stability index was determined as 3.11.

With FQEYDTDCEVFRQRFRQAQYREAA, the protein stability index turned out to be 3.02.

Consider FQEYDTDCEVFRQRFRQCQYREAA, for which the protein stability index is 1.96.

For FQEYDTDCEVFRQRFRQKQYREAA, the protein stability index amounted to 1.76.

For the variant FQEYDTDCEVFRQRFRQGQYREAA, the protein stability index turned out to be 2.4.

Consider FQEYDTDCEVFRQRFRQYQYREAA, for which the protein stability index turned out to be 2.59.

Consider FQEYDTDCEVFRQRFRQLQYREAA, for which the protein stability index came to 4.05.

Regarding FQEYDTDCEVFRQRFRQMQYREAA, the protein stability index turned out to be 3.07.

Regarding FQEYDTDCEVFRQRFRQHQYREAA, the protein stability index came to 2.4.

Turning to FQEYDTDCEVFRQRFRQDQYREAA, the protein stability index amounted to 1.79.

As to FQEYDTDCEVFRQRFRQEQYREAA, the protein stability index is 2.95.

With FQEYDTDCEVFRQRFRQIQYREAA, the protein stability index stood at 2.86.

As to FQEYDTDCEVFRQRFRQRQYREAA, the protein stability index worked out at 2.43.
